Assays:
Test in all cases: BLI
[1] = target: E. coli LamB (E. coli, UniProt P02943 26-446)
[2] = target: E. coli LamB A384S (E. coli, UniProt P02943 26-446, A384S)
[3] = target: Shigella sonnei 3070 LamB (Shigella sonnei 3070, UniProt Q3YUU9 26-446)

B1: gpJ713 (C-terminal truncation of bacteriophage lambda gpJ, starting from residue 713) (domain or fragment)
chain: APAAPSRIELTPGYFQITATPHLAVYDPTVQFEFWFSEKQIADIRQVETSTRYLGTALYWIAASINIKPGHDYYFYIRSVNTVGKSAFVEAVGRASDDAEGYLDFFKGKITESHLGKELLEKVELTEDNASRLEEFSKEWKDASDKWNAMWAVKIEQTKDGKHYVAGIGLSMEDTEEGKLSQFLVAANRIAFIDPANGNETPMFVAQGNQIFMNDVFLKRLTAPTITSGGNPPAFSLTPDGKLTAKNADISGSVNANSGTLSNVTIAENCTINGTLRAEKIVGDIVKAASAAFPRQRESSVDWPSGTRTVTVTDDHPFDRQIVVLPLTFRGSKRTVSGRTTYSMCYLKVLMNGAVIYDGAANEAVQVFSRIVDMPAGRGNVILTFTLTSTRHSADIPPYTFASDVQVMVIKKQALGISVV
[1]
  koff: 0.00427 s⁻¹
[2]
  koff: < 1e-07 s⁻¹
[3]
  koff: < 1e-07 s⁻¹

— article PMC11101478 (2024)
